# From the supplement of paper PMC10598134
# ± gives the standard deviation.
# Assay: collision cross section of modified peptide (TIMS, N2, iRT-aligned); higher = larger / more extended gas-phase ion
# How it was run: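 Values are averages of 1–3 technical replicates of the most abundant feature for each charge state. Collision cross section was obtained from the Mason-Schamp equation after 1/K0 calibration with three reference ions and run-wise alignment to the median iRT peptide deviation. Synthetic peptide pools (iRT standard spiked 1:40) were separated on a 120-min nanoflow C18 gradient at 60 °C, analysed on a timsTOF Pro/HT (dda-PASEF, nitrogen, ~2.4 mbar) and identified with MaxQuant.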
# [1] = charge state: 2, modification: Trimethyl (K)
# [2] = charge state: 3, modification: Trimethyl (K)
# [3] = charge state: 2, modification: Nitro (Y)
# [4] = charge state: 2, modification: Butyryl
# [5] = charge state: 3, modification: Butyryl
# [6] = charge state: 2, modification: Malonyl
# [7] = charge state: 2, modification: Crotonyl
# [8] = charge state: 3, modification: Crotonyl
# [9] = charge state: 2, modification: Biotin
# [10] = charge state: 2, modification: Phospho (Y)
# [11] = charge state: 2, modification: Dimethyl (K)
# [12] = charge state: 3, modification: Dimethyl (K)
# [13] = charge state: 2, modification: Acetyl (K)
# [14] = charge state: 3, modification: Acetyl (K)
# [15] = charge state: 2, modification: Methyl (K)
# [16] = charge state: 3, modification: Methyl (K)
# [17] = charge state: 2, modification: hydroxyisobutyryl
# [18] = charge state: 3, modification: hydroxyisobutyryl
# [19] = charge state: 2, modification: Formyl
# [20] = charge state: 3, modification: Formyl
# [21] = charge state: 2, modification: Hydroxyproline
# [22] = charge state: 3, modification: Biotin
# [23] = charge state: 2, modification: Propionyl
# [24] = charge state: 3, modification: HexNAc (ST)
sequence,measurement,setting,value
SGFGKFER [_SGFGK(GlyGly (K))FER_],collision cross section,"charge state: 2, modification: GlyGly (K)",340.43 ± 0.74 Å²
TPNLYIYSKK [_TPNLYIYSK(Trimethyl (K))K_],collision cross section,[1],381.37 ± 0.61 Å²
same,collision cross section,[2],442.31 Å²
CYYGSDTAGR [_CY(Nitro (Y))YGSDTAGR_],collision cross section,[3],352.25 ± 0.8 Å²
ANEKTESSSAQQVAVSR [_ANEK(Butyryl)TESSSAQQVAVSR_],collision cross section,[4],441.41 ± 1.7 Å²
same,collision cross section,[5],534.65 ± 3.5 Å²
GADFLVTEVENGGSLGSKK [_GADFLVTEVENGGSLGSK(Malonyl)K_],collision cross section,[6],475.75 ± 0.97 Å²
TQAYQDQKPGTSGLR [_TQAYQDQK(Crotonyl)PGTSGLR_],collision cross section,[7],430.35 ± 3.2 Å²
same,collision cross section,[8],480.34 ± 2.8 Å²
KFGVLSDNFK [_K(Biotin)FGVLSDNFK_],collision cross section,[9],394.71 ± 3.8 Å²
LEENHYNTYISK [_LEENHYNTY(Phospho (Y))ISK_],collision cross section,[10],422.15 ± 0.06 Å²
same,collision cross section,"charge state: 3, modification: Phospho (Y)",477.33 ± 1 Å²
TTGFYSGFSEVAEKR [_TTGFYSGFSEVAEK(Dimethyl (K))R_],collision cross section,[11],453.39 ± 1.3 Å²
same,collision cross section,[12],504.73 ± 0.75 Å²
HELQANCYEEVKDR [_HELQANCYEEVK(Butyryl)DR_],collision cross section,[4],452.47 ± 0.51 Å²
same,collision cross section,[5],502.99 ± 3.8 Å²
TTGFYSGFSEVAEKR [_TTGFYSGFSEVAEK(Acetyl (K))R_],collision cross section,[13],434.33 ± 1.7 Å²
same,collision cross section,[14],508.12 ± 0.12 Å²
TVSKVDDFLANEAK [_TVSK(Methyl (K))VDDFLANEAK_],collision cross section,[15],413.26 ± 1.6 Å²
same,collision cross section,[16],471.08 ± 3.6 Å²
ISSNFSSIIAEKLR [_ISSNFSSIIAEK(Trimethyl (K))LR_],collision cross section,[2],499.26 ± 8.7 Å²
VSPASSVDSNIPSSQGYKK [_VSPASSVDSNIPSSQGYK(Butyryl)K_],collision cross section,[4],463.23 ± 2.7 Å²
same,collision cross section,[5],559.88 ± 1.1 Å²
VDVEVPDVSLEGPEGKLK [_VDVEVPDVSLEGPEGK(Acetyl (K))LK_],collision cross section,[13],461.92 ± 2.1 Å²
same,collision cross section,[14],555.98 Å²
KFGVLSDNFK [_K(Gluratylation)FGVLSDNFK_],collision cross section,"charge state: 2, modification: Glutarylation",380.33 ± 0.73 Å²
GRGAANDSTQFTVAGR [_GR(Citrullination (R))GAANDSTQFTVAGR_],collision cross section,"charge state: 2, modification: Citrullination (R)",411.84 ± 0.81 Å²
same,collision cross section,"charge state: 3, modification: Citrullination (R)",488.59 ± 0.56 Å²
GADFLVTEVENGGSLGSKK [_GADFLVTEVENGGSLGSK(Crotonyl)K_],collision cross section,[7],475.14 ± 1.9 Å²
same,collision cross section,[8],548.96 Å²
IVFSGNLFQHQEDSKK [_IVFSGNLFQHQEDSK(hydroxyisobutyryl)K_],collision cross section,[17],503.66 ± 0.71 Å²
same,collision cross section,[18],534.25 ± 1.1 Å²
ATVASSTQKFQDLGVK [_ATVASSTQK(hydroxyisobutyryl)FQDLGVK_],collision cross section,[17],453.68 ± 1.4 Å²
same,collision cross section,[18],498.28 ± 1.6 Å²
ASDTSSETVFGKR [_ASDTSSETVFGK(Acetyl (K))R_],collision cross section,[13],397.17 ± 0.32 Å²
same,collision cross section,[14],476.65 ± 0.87 Å²
LEQVEKELLR [_LEQVEK(hydroxyisobutyryl)ELLR_],collision cross section,[17],394.74 ± 0.29 Å²
PGGEGPQCEKTTDVK [_PGGEGPQCEK(Butyryl)TTDVK_],collision cross section,[4],421.37 ± 0.77 Å²
AGQKLIDVNHYAK [_AGQK(Formyl)LIDVNHYAK_],collision cross section,[19],428.61 ± 0.79 Å²
same,collision cross section,[20],474.19 ± 2.1 Å²
GDRGEIGPPGPR [_GDRGEIGPP(Hydroxyproline)GPR_],collision cross section,[21],368.56 ± 1.9 Å²
same,collision cross section,"charge state: 3, modification: Hydroxyproline",424.63 ± 1.2 Å²
GEVGAGAGPGAQAGPSAKR [_GEVGAGAGPGAQAGPSAK(Biotin)R_],collision cross section,[9],440.5 ± 1.2 Å²
same,collision cross section,[22],470.58 ± 2.6 Å²
SNEEGSEEKGPEVR [_SNEEGSEEK(Propionyl)GPEVR_],collision cross section,[23],404.8 ± 1.3 Å²
ASAISIKLGSSK [_ASAISIK(Butyryl)LGSSK_],collision cross section,[4],375.24 ± 1.9 Å²
HHAAYVNNLNVTEEK [_HHAAY(Nitro (Y))VNNLNVTEEK_],collision cross section,[3],438.46 Å²
same,collision cross section,"charge state: 3, modification: Nitro (Y)",499.02 ± 3.6 Å²
GDPGLIGPK [_GDP(Hydroxyproline)GLIGPK_],collision cross section,[21],312.86 ± 1.3 Å²
ITESVAETAQTIKK [_ITESVAETAQTIK(Formyl)K_],collision cross section,[19],415.52 ± 0.56 Å²
same,collision cross section,[20],507.5 ± 1.5 Å²
LQAAYAGDKADDIQK [_LQAAYAGDK(Malonyl)ADDIQK_],collision cross section,[6],436.07 ± 1.2 Å²
AQSYAQQLGR [_AQSY(Phospho (Y))AQQLGR_],collision cross section,[10],354.7 ± 0.065 Å²
GFALVGVGSEASSKK [_GFALVGVGSEASSK(hydroxyisobutyryl)K_],collision cross section,[17],419.49 ± 2.2 Å²
same,collision cross section,[18],502.54 ± 2.1 Å²
LGNDFHTNKR [_LGNDFHTNK(Trimethyl (K))R_],collision cross section,[2],415.91 ± 2.1 Å²
LQAAYAGDKADDIQK [_LQAAYAGDK(Trimethyl (K))ADDIQK_],collision cross section,[1],440.52 ± 0.59 Å²
same,collision cross section,[2],477.2 ± 1.8 Å²
SPPLPEHQKIPCNSAEPK [_SPPLPEHQK(Succinyl)IPCNSAEPK_],collision cross section,"charge state: 3, modification: Succinyl",539.73 ± 2.2 Å²
VFIGNLNTLVVKK [_VFIGNLNTLVVK(Trimethyl (K))K_],collision cross section,[1],435.19 ± 1 Å²
same,collision cross section,[2],485.88 ± 1.8 Å²
TQAYQDQKPGTSGLR [_TQAYQDQK(Biotin)PGTSGLR_],collision cross section,[9],446.01 ± 0.23 Å²
same,collision cross section,[22],500.74 ± 0.34 Å²
INNFSADIKDSK [_INNFSADIK(Methyl (K))DSK_],collision cross section,[15],401.35 ± 2.2 Å²
same,collision cross section,[16],451.47 ± 4.8 Å²
GTITVSAQELKDNR [_GTITVSAQELK(Biotin)DNR_],collision cross section,[9],437.8 ± 0.23 Å²
same,collision cross section,[22],500.75 Å²
RLDINTNTYTSQDLK [_RLDINTNTYTS(HexNAc (ST))QDLK_],collision cross section,[24],511.61 ± 0.96 Å²
KITESVAETAQTIK [_KITESVAETAQT(HexNAc (ST))IK_],collision cross section,"charge state: 2, modification: HexNAc (ST)",451.91 ± 0.56 Å²
same,collision cross section,[24],504.11 ± 1.1 Å²
LAEEENKAK [_LAEEENK(Biotin)AK_],collision cross section,[9],371.22 Å²
SGFGKFER [_SGFGK(Trimethyl (K))FER_],collision cross section,[1],339.14 Å²
VFIGNLNTLVVKK [_VFIGNLNTLVVK(Crotonyl)K_],collision cross section,[7],413.58 ± 0.34 Å²
same,collision cross section,[8],479.51 Å²
TQAYQDQKPGTSGLR [_TQAYQDQK(Propionyl)PGTSGLR_],collision cross section,[23],428.95 ± 1.4 Å²
PSVGSQSNQAGQGKR [_PSVGSQSNQAGQGK(Dimethyl (K))R_],collision cross section,[11],425.54 ± 3 Å²
same,collision cross section,[12],470.05 ± 1.2 Å²
LTSLNVKYNNDK [_LTSLNVK(Propionyl)YNNDK_],collision cross section,[23],410.81 ± 0.38 Å²
SDSGKPYYYNSQTK [_SDSGK(hydroxyisobutyryl)PYYYNSQTK_],collision cross section,[17],428.74 ± 0.3 Å²
same,collision cross section,[18],490.1 ± 3.9 Å²
IGNSYFKEEK [_IGNSYFK(Propionyl)EEK_],collision cross section,[23],375.51 ± 0.65 Å²
ITLSKHQNVQLPR [_ITLSK(Crotonyl)HQNVQLPR_],collision cross section,[7],443.04 ± 1.2 Å²
same,collision cross section,[8],519.02 ± 26 Å²
ASCLYGQLPK [_ASCLY(Phospho (Y))GQLPK_],collision cross section,[10],373.97 ± 0.65 Å²
